# Experimental data as given in ChEMBL document CHEMBL1212772.
# B1: Beta-lactamase OXA-23 (Acinetobacter baumannii), Q9L4P2 (protein)
# chain: MNKYFTCYVVASLFLSGCTVQHNLINETPSQIVQGHNQVIHQYFDEKNTSGVLVIQTDKKINLYGNALSRANTEYVPASTFKMLNALIGLENQKTDINEIFKWKGEKRSFTAWEKDMTLGEAMKLSAVPVYQELARRIGLDLMQKEVKRIGFGNAEIGQQVDNFWLVGPLKVTPIQEVEFVSQLAHTQLPFSEKVQANVKNMLLLEESNGYKIFGKTGWAMDIKPQVGWLTGWVEQPDGKIVAFALNMEMRSEMPASIRNELLMKSLKQLNII
# B2: Beta-lactamase SHV-1 (Klebsiella pneumoniae), P0AD64 (protein)
# chain: MRYIRLCIISLLATLPLAVHASPQPLEQIKLSESQLSGRVGMIEMDLASGRTLTAWRADERFPMMSTFKVVLCGAVLARVDAGDEQLERKIHYRQQDLVDYSPVSEKHLADGMTVGELCAAAITMSDNSAANLLLATVGGPAGLTAFLRQIGDNVTRLDRWETELNEALPGDARDTTTPASMAATLRKLLTSQRLSARSQRQLLQWMVDDRVAGPLIRSVLPAGWFIADKTGAGERGARGIVALLGPNNKAERIVVIYLRDTPASMAERNQQIAGIGAALIEHWQR
# B3: Beta-lactamase (Enterobacter cloacae), P05364 (protein)
# chain: MMRKSLCCALLLGISCSALATPVSEKQLAEVVANTITPLMKAQSVPGMAVAVIYQGKPHYYTFGKADIAANKPVTPQTLFELGSISKTFTGVLGGDAIARGEISLDDAVTRYWPQLTGKQWQGIRMLDLATYTAGGLPLQVPDEVTDNASLLRFYQNWQPQWKPGTTRLYANASIGLFGALAVKPSGMPYEQAMTTRVLKPLKLDHTWINVPKAEEAHYAWGYRDGKAVRVSPGMLDAQAYGVKTNVQDMANWVMANMAPENVADASLKQGIALAQSRYWRIGSMYQGLGWEMLNWPVEANTVVEGSDSKVALAPLPVAEVNPPAPPVKASWVHKTGSTGGFGSYVAFIPEKQIGIVMLANTSYPNPARVEAAYHILEALQ
# Key:
# [1] = substrate: CC(C)(O/N=C(\C(=O)N[C@@H]1C(=O)N2C(C(=O)[O-])=C(C[n+]3ccccc3)CS[C@H]12)c1csc(N)n1)C(=O)O; experiment: Activity of Pseudomonas aeruginosa SPM-1
# [2] = substrate: CC(C)(O/N=C(\C(=O)N[C@@H]1C(=O)N2C(C(=O)[O-])=C(C[n+]3ccccc3)CS[C@H]12)c1csc(N)n1)C(=O)O; experiment: (§1) Activity of Acinetobacter baumannii OXA-23
# [3] = substrate: CC1(C)S[C@@H]2[C@H](NC(=O)Cc3ccccc3)C(=O)N2[C@H]1C(=O)O; experiment: as §1
# [4] = substrate: C[C@@H](O)[C@H]1C(=O)N2C(C(=O)O)=C(SCCNC=N)C[C@H]12; experiment: as §1
# [5] = substrate: C[C@@H](O)[C@H]1C(=O)N2C(C(=O)O)=C(S[C@@H]3CN[C@H](C(=O)N(C)C)C3)[C@H](C)[C@H]12; experiment: as §1
# [6] = substrate: C[C@@H](O)[C@H]1C(=O)N2C(C(=O)O)=C(S[C@@H]3CN[C@H](CNS(N)(=O)=O)C3)[C@H](C)[C@H]12; experiment: as §1
# [7] = substrate: O=C(Cc1cccs1)N[C@@H]1C(=O)N2C(C(=O)[O-])=C(C[n+]3ccccc3)CS[C@H]12; experiment: as §1
# [8] = substrate: CC(C)(O/N=C(\C(=O)N[C@@H]1C(=O)N2C(C(=O)[O-])=C(C[n+]3ccccc3)CS[C@H]12)c1csc(N)n1)C(=O)O; experiment: Kcat/Km ratio of Pseudomonas aeruginosa SPM-1
# [9] = substrate: CC1(C)S[C@@H]2[C@H](NC(=O)Cc3ccccc3)C(=O)N2[C@H]1C(=O)O; conditions: Acinetobacter baumannii
# Description: (§6) Kcat/Km ratio of Acinetobacter baumannii OXA-23
# [10] = substrate: C[C@@H](O)[C@H]1C(=O)N2C(C(=O)O)=C(SCCNC=N)C[C@H]12; conditions: Acinetobacter baumannii
# Description: as §6
# [11] = substrate: C[C@@H](O)[C@H]1C(=O)N2C(C(=O)O)=C(S[C@@H]3CN[C@H](C(=O)N(C)C)C3)[C@H](C)[C@H]12; conditions: Acinetobacter baumannii
# Description: as §6
# [12] = substrate: C[C@@H](O)[C@H]1C(=O)N2C(C(=O)O)=C(S[C@@H]3CN[C@H](CNS(N)(=O)=O)C3)[C@H](C)[C@H]12; conditions: Acinetobacter baumannii
# Description: as §6
# [13] = substrate: O=C(Cc1cccs1)N[C@@H]1C(=O)N2C(C(=O)[O-])=C(C[n+]3ccccc3)CS[C@H]12; conditions: Acinetobacter baumannii
# Description: as §6
# Pseudomonas aeruginosa [14] = experiment: Activity of Pseudomonas aeruginosa SPM-1
# Pseudomonas aeruginosa [15] = experiment: Kcat/Km ratio of Pseudomonas aeruginosa SPM-1
# [16] = substrate: CC1(C)S[C@@H]2[C@H](NC(=O)Cc3ccccc3)C(=O)N2[C@H]1C(=O)O; experiment: (§2) Activity of Klebsiella pneumoniae SHV-1
# [17] = substrate: C[C@@H](O)[C@H]1C(=O)N2C(C(=O)O)=C(SCCNC=N)C[C@H]12; experiment: as §2
# [18] = substrate: C[C@@H](O)[C@H]1C(=O)N2C(C(=O)O)=C(S[C@@H]3CN[C@H](C(=O)N(C)C)C3)[C@H](C)[C@H]12; experiment: as §2
# [19] = substrate: C[C@@H](O)[C@H]1C(=O)N2C(C(=O)O)=C(S[C@@H]3CN[C@H](CNS(N)(=O)=O)C3)[C@H](C)[C@H]12; experiment: as §2
# [20] = substrate: O=C(Cc1cccs1)N[C@@H]1C(=O)N2C(C(=O)[O-])=C(C[n+]3ccccc3)CS[C@H]12; experiment: as §2
# [21] = substrate: CC1(C)S[C@@H]2[C@H](NC(=O)Cc3ccccc3)C(=O)N2[C@H]1C(=O)O; experiment: (§3) Kcat/Km ratio of Klebsiella pneumoniae SHV-1
# [22] = substrate: C[C@@H](O)[C@H]1C(=O)N2C(C(=O)O)=C(SCCNC=N)C[C@H]12; experiment: as §3
# [23] = substrate: C[C@@H](O)[C@H]1C(=O)N2C(C(=O)O)=C(S[C@@H]3CN[C@H](C(=O)N(C)C)C3)[C@H](C)[C@H]12; experiment: as §3
# [24] = substrate: C[C@@H](O)[C@H]1C(=O)N2C(C(=O)O)=C(S[C@@H]3CN[C@H](CNS(N)(=O)=O)C3)[C@H](C)[C@H]12; experiment: as §3
# [25] = substrate: O=C(Cc1cccs1)N[C@@H]1C(=O)N2C(C(=O)[O-])=C(C[n+]3ccccc3)CS[C@H]12; experiment: as §3
# [26] = substrate: C[C@@H](O)[C@H]1C(=O)N2C(C(=O)O)=C(SCCNC=N)C[C@H]12; experiment: (§4) Activity of Enterobacter cloacae AmpC
# [27] = substrate: C[C@@H](O)[C@H]1C(=O)N2C(C(=O)O)=C(S[C@@H]3CN[C@H](C(=O)N(C)C)C3)[C@H](C)[C@H]12; experiment: as §4
# [28] = substrate: C[C@@H](O)[C@H]1C(=O)N2C(C(=O)O)=C(S[C@@H]3CN[C@H](CNS(N)(=O)=O)C3)[C@H](C)[C@H]12; experiment: as §4
# [29] = substrate: C[C@@H](O)[C@H]1C(=O)N2C(C(=O)O)=C(SCCNC=N)C[C@H]12; experiment: (§5) Kcat/Km ratio of Enterobacter cloacae AmpC
# [30] = substrate: C[C@@H](O)[C@H]1C(=O)N2C(C(=O)O)=C(S[C@@H]3CN[C@H](C(=O)N(C)C)C3)[C@H](C)[C@H]12; experiment: as §5
# [31] = substrate: C[C@@H](O)[C@H]1C(=O)N2C(C(=O)O)=C(S[C@@H]3CN[C@H](CNS(N)(=O)=O)C3)[C@H](C)[C@H]12; experiment: as §5
protein,measurement,setting,value
B1,Km,[1],120 µM
same,kcat,[1],77 s⁻¹
same,kcat,[2],< 0.0042 s⁻¹
same,Km,[3],13 µM
same,kcat,[3],530 s⁻¹
same,Km,[4],1.3 µM
same,kcat,[4],0.92 s⁻¹
same,Km,[5],2.5 µM
same,kcat,[5],0.13 s⁻¹
same,Km,[6],1.8 µM
same,kcat,[6],0.2 s⁻¹
same,Km,[7],1300 µM
same,kcat,[7],450 s⁻¹
same,kcat/Km,[8],640000 M⁻¹ s⁻¹
same,kcat/Km,[9],4.1e+07 M⁻¹ s⁻¹
same,kcat/Km,[10],50000 M⁻¹ s⁻¹
same,kcat/Km,[11],52000 M⁻¹ s⁻¹
same,kcat/Km,[12],110000 M⁻¹ s⁻¹
same,kcat/Km,[13],350000 M⁻¹ s⁻¹
same,Km,Pseudomonas aeruginosa [14],82 µM
same,kcat,Pseudomonas aeruginosa [14],45 s⁻¹
same,kcat/Km,Pseudomonas aeruginosa [15],550000 M⁻¹ s⁻¹
B2,kcat,[16],1100 s⁻¹
same,Km,[17],23 µM
same,kcat,[17],0.054 s⁻¹
same,Km,[18],4.2 µM
same,kcat,[18],0.0017 s⁻¹
same,Km,[19],4.3 µM
same,kcat,[19],0.003 s⁻¹
same,kcat,[20],410 s⁻¹
same,kcat/Km,[21],6.9e+07 M⁻¹ s⁻¹
same,kcat/Km,[22],2400 M⁻¹ s⁻¹
same,kcat/Km,[23],400 M⁻¹ s⁻¹
same,kcat/Km,[24],700 M⁻¹ s⁻¹
same,kcat/Km,[25],2.6e+06 M⁻¹ s⁻¹
B3,Km,[26],24 µM
same,kcat,[26],0.012 s⁻¹
same,Km,[27],9.8 µM
same,kcat,[27],0.00031 s⁻¹
same,Km,[28],9.6 µM
same,kcat,[28],0.00043 s⁻¹
same,kcat/Km,[29],500 M⁻¹ s⁻¹
same,kcat/Km,[30],32 M⁻¹ s⁻¹
same,kcat/Km,[31],45 M⁻¹ s⁻¹
